Literature values, collected in publication PMC5807066.
Values joined by “and” are separate entries in the source; they are usually repeats but may differ in a detail not shown here. Equal values may be shown once. Read-outs that look alike come from different tables or passages of the source. Blank lines part the entries; values can stand above or below the substance they belong to.

Experiments:
[1] = target: SecA:SecYEG complex (Escherichia coli) (UniProt C4ZRJ3)
[2] = target: SecA (Escherichia coli) (UniProt P10408)
[3] = target: SecA (Escherichia coli) (UniProt P10408); remark: listed apart in the source
[4] = target: SecA (Escherichia coli) (UniProt P10408); remark: listed apart in the source
[5] = target: MBP (unfolded) (Escherichia coli) [MBP: P0AEX9]

Chain of SecA (P10408 whole entry): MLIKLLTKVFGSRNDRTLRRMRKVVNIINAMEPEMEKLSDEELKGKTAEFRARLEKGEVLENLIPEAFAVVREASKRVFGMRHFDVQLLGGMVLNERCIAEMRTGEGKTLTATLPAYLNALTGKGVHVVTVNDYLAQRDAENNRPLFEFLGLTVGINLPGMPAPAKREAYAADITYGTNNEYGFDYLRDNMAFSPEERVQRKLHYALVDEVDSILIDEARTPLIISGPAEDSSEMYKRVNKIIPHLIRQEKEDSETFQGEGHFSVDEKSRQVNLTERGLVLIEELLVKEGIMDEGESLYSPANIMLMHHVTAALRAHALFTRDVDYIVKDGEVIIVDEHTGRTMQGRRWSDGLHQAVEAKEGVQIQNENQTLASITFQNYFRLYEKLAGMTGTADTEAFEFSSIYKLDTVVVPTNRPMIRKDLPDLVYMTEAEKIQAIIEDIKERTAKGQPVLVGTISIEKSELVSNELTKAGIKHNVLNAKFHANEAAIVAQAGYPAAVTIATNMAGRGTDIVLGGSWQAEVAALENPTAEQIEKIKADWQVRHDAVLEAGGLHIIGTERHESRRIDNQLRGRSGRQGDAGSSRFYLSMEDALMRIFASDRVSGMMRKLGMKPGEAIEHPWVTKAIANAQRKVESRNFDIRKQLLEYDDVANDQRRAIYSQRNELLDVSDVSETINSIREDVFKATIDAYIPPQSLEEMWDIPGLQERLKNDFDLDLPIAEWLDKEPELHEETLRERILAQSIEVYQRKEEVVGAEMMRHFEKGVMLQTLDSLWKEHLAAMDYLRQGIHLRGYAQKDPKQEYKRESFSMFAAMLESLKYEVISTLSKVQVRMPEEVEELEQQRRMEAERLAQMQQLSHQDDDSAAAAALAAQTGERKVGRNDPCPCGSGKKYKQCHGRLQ

Kd [1]: 230 nM
Substance: PhoA precursor (from UniProt P00634)

Substance: SecA (from UniProt P10408)
Kd [2]: 100 nM and 1000 nM

Kd [3]: 4000 nM | Kd [4]: 2000 nM | Kd [5]: 30 nM
Substance: SecB (from UniProt P0AG86)
